The values that follow come from IntAct's records for PubMed 25910212.

B1: 2'-5'-oligoadenylate synthase 1 (Homo sapiens), P00973-2 (parent)
chain: MMDLRNTPAKSLDKFIEDYLLPDTCFRMQINHAIDIICGFLKERCFRGSSYPVCVSKVVKGGSSGKGTTLRGRSDADLVVFLSPLTTFQDQLNRRGEFIQEIRRQLEACQRERAFSVKFEVQAPRWGNPRALSFVLSSLQLGEGVEFDVLPAFDALGQLTGGYKPNPQIYVKLIEECTDLQKEGEFSTCFTELQRDFLKQRPTKLKSLIRLVKHWYQNCKKKLGKLPPQYALELLTVYAWERGSMKTHFNTAQGFRTVLELVINYQQLCIYWTKYYDFKNPIIEKYLRRQLTKPRPVILDPADPTGNLGGGDPKGWRQLAQEAEAWLNYPCFKNWDGSPVSSWILLVRPPASSLPFIPAPLHEA
partner: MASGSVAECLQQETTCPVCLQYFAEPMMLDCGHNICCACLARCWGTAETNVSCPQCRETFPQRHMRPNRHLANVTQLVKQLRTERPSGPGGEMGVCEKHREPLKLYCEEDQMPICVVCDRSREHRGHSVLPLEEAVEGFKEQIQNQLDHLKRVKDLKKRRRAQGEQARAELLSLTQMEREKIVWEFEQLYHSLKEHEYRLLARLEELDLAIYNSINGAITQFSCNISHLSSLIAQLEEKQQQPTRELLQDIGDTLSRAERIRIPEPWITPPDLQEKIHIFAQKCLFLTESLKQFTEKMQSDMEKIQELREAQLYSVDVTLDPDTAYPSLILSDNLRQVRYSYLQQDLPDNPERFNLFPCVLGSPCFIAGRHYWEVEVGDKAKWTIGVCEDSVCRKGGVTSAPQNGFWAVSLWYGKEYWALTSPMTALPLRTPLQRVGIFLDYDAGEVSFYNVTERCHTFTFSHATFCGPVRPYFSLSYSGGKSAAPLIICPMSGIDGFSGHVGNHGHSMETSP
B2: Elongation factor Ts, mitochondrial (Homo sapiens), P43897-2 (parent)
chain: MSLLRSLRVFLVARTGSYPAGSLLRQSPQPRHTFYAGPRLSASASSKELLMKLRRKTGYSFVNCKKALETCGGDLKQAEIWLHKEAQKEGWSKAAKLQGRKTKEGLIGLLQEGNTTVLVEVNCETDFVSRNLKFQLLVQQVALGTMMHCQTLKDQPSAYSKVQWLTPVNLALWEAEAGGSLEGFLNSSELSGLPAGPDREGSLKDQLALAIGKLGENMILKRAAWVKVPSGFYVGSYVHGAMQSPSLHKLVLGKYGALVICETSEQKTNLEDVGRRLGQHVVGMAPLSVGSLDDEPGGEAETKMLSQPYLLDPSITLGQYVQPQGVSVVDFVRFECGEGEEAAETE
partner: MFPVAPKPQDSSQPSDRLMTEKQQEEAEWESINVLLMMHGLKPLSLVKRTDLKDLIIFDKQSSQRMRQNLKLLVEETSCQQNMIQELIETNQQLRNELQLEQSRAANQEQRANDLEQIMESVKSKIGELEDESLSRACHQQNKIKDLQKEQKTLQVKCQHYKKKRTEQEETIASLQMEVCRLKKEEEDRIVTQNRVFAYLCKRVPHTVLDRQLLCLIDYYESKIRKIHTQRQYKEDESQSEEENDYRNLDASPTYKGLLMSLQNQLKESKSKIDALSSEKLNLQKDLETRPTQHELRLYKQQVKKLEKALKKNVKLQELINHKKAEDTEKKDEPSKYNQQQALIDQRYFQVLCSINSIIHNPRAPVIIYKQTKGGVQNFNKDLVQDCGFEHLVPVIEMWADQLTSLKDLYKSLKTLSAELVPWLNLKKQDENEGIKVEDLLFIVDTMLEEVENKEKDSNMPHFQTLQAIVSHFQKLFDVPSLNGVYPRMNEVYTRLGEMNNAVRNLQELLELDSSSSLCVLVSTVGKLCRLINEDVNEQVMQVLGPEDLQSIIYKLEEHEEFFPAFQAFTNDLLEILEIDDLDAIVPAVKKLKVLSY
B3: Emerin (Homo sapiens), P50402 (parent)
chain: MDNYADLSDTELTTLLRRYNIPHGPVVGSTRRLYEKKIFEYETQRRRLSPPSSSAASSYSFSDLNSTRGDADMYDLPKKEDALLYQSKGYNDDYYEESYFTTRTYGEPESAGPSRAVRQSVTSFPDADAFHHQVHDDDLLSSSEEECKDRERPMYGRDSAYQSITHYRPVSASRSSLDLSYYPTSSSTSFMSSSSSSSSWLTRRAIRPENRAPGAGLGQDRQVPLWGQLLLFLVFVIVLFFIYHFMQAEEGNPF
partner: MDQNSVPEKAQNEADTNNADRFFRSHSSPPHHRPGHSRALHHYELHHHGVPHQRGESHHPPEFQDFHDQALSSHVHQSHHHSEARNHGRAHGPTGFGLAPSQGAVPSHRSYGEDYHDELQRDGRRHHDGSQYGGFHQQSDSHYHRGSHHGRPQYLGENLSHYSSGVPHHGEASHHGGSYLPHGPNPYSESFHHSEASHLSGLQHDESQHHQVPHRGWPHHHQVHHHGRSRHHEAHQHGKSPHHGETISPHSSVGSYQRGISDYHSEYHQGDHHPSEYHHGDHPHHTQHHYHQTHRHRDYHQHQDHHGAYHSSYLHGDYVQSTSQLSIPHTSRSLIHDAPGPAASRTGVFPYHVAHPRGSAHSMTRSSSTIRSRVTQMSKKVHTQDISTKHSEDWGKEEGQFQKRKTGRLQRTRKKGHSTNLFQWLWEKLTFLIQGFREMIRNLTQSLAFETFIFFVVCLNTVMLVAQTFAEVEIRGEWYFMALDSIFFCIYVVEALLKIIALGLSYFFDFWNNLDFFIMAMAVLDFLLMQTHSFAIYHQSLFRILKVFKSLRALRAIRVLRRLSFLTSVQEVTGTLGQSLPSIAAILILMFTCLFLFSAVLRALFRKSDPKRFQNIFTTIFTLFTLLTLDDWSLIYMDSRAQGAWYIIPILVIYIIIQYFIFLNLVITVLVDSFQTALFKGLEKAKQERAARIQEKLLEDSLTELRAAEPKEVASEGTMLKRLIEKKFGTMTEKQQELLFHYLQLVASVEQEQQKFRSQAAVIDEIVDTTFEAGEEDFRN
B4: Corrinoid adenosyltransferase MMAB (Homo sapiens), Q96EY8 (parent)
chain: MAVCGLGSRLGLGSRLGLRGCFGAARLLYPRFQSRGPQGVEDGDRPQPSSKTPRIPKIYTKTGDKGFSSTFTGERRPKDDQVFEAVGTTDELSSAIGFALELVTEKGHTFAEELQKIQCTLQDVGSALATPCSSAREAHLKYTTFKAGPILELEQWIDKYTSQLPPLTAFILPSGGKISSALHFCRAVCRRAERRVVPLVQMGETDANVAKFLNRLSDYLFTLARYAAMKEGNQEKIYMKNDPSAESEGL
partner: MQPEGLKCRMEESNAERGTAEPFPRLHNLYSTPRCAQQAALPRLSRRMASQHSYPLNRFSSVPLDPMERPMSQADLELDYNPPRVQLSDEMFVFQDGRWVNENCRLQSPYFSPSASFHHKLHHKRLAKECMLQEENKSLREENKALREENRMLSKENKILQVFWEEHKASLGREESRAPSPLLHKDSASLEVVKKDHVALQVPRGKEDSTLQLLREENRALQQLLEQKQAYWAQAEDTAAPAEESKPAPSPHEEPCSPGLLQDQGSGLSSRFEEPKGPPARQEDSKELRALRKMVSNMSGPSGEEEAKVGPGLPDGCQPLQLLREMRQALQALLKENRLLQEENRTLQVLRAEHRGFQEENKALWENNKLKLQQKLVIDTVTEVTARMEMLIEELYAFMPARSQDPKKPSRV

The first assay covers variants of B1. As to conditions: with tri27_human TRIM27, P14373.
For MMDLRNTPAKSLDKFIEDYLLPDTCFRMQINHAIDIICGFLKERCFRGSSYPVCVSKVVKGGSSGKGTTLRGRSDADLVVFLSPLTTFQDQLNRRGEFIQEIRRQLEACQRERAFSVKFEVQAPRWGNPRALSFVLSSLQLGEGVEFDVLPAFDALGQLTGGYKPNPQIYVKLIEECTDLQKEGEFSTCFTELQRDFLKQRPTKLKSLIRLVKHWYQNCKKKLGKLPPQYALELLTVYAWEQGSMKTHFNTAQGFRTVLELVINYQQLCIYWTKYYDFKNPIIEKYLRRQLTKPRPVILDPADPTGNLGGGDPKGWRQLAQEAEAWLNYPCFKNWDGSPVSSWILLVRPPASSLPFIPAPLHEA [R242Q], the “effect of a mutation on the interaction” value is given as “with no effect”.

Variants of B2 are the subject of the next assay. As to conditions: with cep70_human CEP70, Q8NHQ1.
With MSLLRSLRVFLVARTGSYPAGSLLRQSPQPRHTFYAGPRLSASASSKELLMKLRRKTGYSFVNCKKALETCGGDLKQAEIWLHKEAQKEGWSKAAKLQGRKTKEGLIGLLQEGNTTVLVEVNCETDFVSRNLKFQLLVQQVALGTMMHCQTLKDQPSAYSKVQWLTPVNLALWEAEAGGSLEGFLNSSELSGLPAGPDREGSLKDQLALAIGKLGENMILKRAAWVKVPSGFYVGSYVHGAMQSPSLHKLVLGKYGALVICETSEQKTNLEDVGRRLGQHVVGMAPLSVGSLDDEPGGEAETKMLSQPYLLDPSITLGQYVQPQGVSVVDFVWFECGEGEEAAETE [R333W], the “effect of a mutation on the interaction” value was “disrupting interaction strength”.

The variants in the next assay derive from B3. As to conditions: with ctsr1_human CATSPER1, Q8NEC5.
In the case of MDNYADLSDTELTTLLRRYNIPHGPVVGSTRRLYEKKIFEYETQRRRLSPPSSSAASSYSFSDLNSTRGDAVMYDLPKKEDALLYQSKGYNDDYYEESYFTTRTYGEPESAGPSRAVRQSVTSFPDADAFHHQVHDDDLLSSSEEECKDRERPMYGRDSAYQSITHYRPVSASRSSLDLSYYPTSSSTSFMSSSSSSSSWLTRRAIRPENRAPGAGLGQDRQVPLWGQLLLFLVFVIVLFFIYHFMQAEEGNPF [D72V], the “effect of a mutation on the interaction” value is given as “with no effect”.

Consider MDNYADLSDTELTTLLRRYNIPHGPVVGSTRRLYEKKIFEYETQRRRLSPPSSSAASSYSFSDLNSTRGDADMYDLPKKEDALLYQSKGYNDDYYEESYFTTRTYGEPESAGPSRAVRQSVTSFPDADAFHHQVHDDDLLSSSEEECKDRERPMYGRDSAYQSITHYRPVSASRSSLDLSYYHTSSSTSFMSSSSSSSSWLTRRAIRPENRAPGAGLGQDRQVPLWGQLLLFLVFVIVLFFIYHFMQAEEGNPF [P183H], for which the “effect of a mutation on the interaction” value was “with no effect”.

Consider MDNYADLSDTELTTLLRRYNIPHGPVVGSTRRLYEKKIFEYETQRRRLSPPSSSAASSYSFSDLNSTRGDADMYDLPKKEDALLYQSKGYNDDYYEESYFTTRTYGEPESAGPSRAVRQSVTSFPDADAFHHQVHDDDLLSSSEEECKDRERPMYGRDSAYQSITHYRPVSASRSSLDLSYYTTSSSTSFMSSSSSSSSWLTRRAIRPENRAPGAGLGQDRQVPLWGQLLLFLVFVIVLFFIYHFMQAEEGNPF [P183T], for which the “effect of a mutation on the interaction” value was “with no effect”.

In the case of MDNYADLSDTELTTLLRRYNIPHGPVVGSTRRLYEKKIFEYETQRRRLSPPSSFAASSYSFSDLNSTRGDADMYDLPKKEDALLYQSKGYNDDYYEESYFTTRTYGEPESAGPSRAVRQSVTSFPDADAFHHQVHDDDLLSSSEEECKDRERPMYGRDSAYQSITHYRPVSASRSSLDLSYYPTSSSTSFMSSSSSSSSWLTRRAIRPENRAPGAGLGQDRQVPLWGQLLLFLVFVIVLFFIYHFMQAEEGNPF [S54F], the “effect of a mutation on the interaction” value is listed as “with no effect”.

The variants in another assay derive from B4. As to conditions: with CBY2, Q8NA61-2.
For MAVCGLGSRLGLGSRLGLRGCFGAARLLYPRFQSRGPQGVEDGDRPQPSSKTPRIPKIYTKTGDKGFSSTFTGERRPKDDQVFEAVGTTDELSSAIGFALELVTEKGHTFAEELQKIQCTLQDVGSALATPCSSAREAHLKYTTFKAGPILELEQWIDKYTSQLPPLTAFILPSGGKISSALHFCQAVCRRAERRVVPLVQMGETDANVAKFLNRLSDYLFTLARYAAMKEGNQEKIYMKNDPSAESEGL [R186Q], the “effect of a mutation on the interaction” value is recorded as “with no effect”.
